Here are results for three molecules from article doi:10.1101/2025.11.14.688546, “Nuclear-import receptors remodel the dilute phase to suppress phase transitions of RNA-binding proteins with prion-like domains” (bioRxiv, 2025).

For data set [1], the target named is Kapβ2 (Homo sapiens) (UniProt Q92973). As to conditions: cited from earlier work.
Data set [2] has the same target. The data set is described as follows: fluorescence anisotropy. The note with it: cited from earlier work. (In general: Fluorescence polarisation rises when a labelled molecule tumbles more slowly, as on binding a larger partner.)
The target of the next data set is hnRNPA1 (UniProt P09651).
Sequence of hnRNPA1 (P09651 whole entry): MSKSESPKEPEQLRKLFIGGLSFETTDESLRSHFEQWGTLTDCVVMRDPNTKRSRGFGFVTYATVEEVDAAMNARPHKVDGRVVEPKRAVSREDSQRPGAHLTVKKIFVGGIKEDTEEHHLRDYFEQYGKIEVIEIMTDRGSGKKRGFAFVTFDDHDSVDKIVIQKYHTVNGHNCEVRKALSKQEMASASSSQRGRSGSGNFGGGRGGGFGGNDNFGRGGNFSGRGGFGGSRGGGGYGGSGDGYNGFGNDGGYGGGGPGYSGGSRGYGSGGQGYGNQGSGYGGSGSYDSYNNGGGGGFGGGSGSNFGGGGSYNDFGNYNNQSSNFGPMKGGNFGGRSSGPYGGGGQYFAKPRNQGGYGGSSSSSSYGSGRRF
Data set [3] concerns the molecule itself. The data set is described as follows: microfluidic resistive pulse sensing (MRPS); increasing concentrations of the RNA-binding protein alone; MBP cleaved in situ by TEV (0.04 mg/ml), 1.5–2 h at room temperature; C-400 and C-2000 cartridges (70–2000 nm); FUS: 20 mM HEPES pH 7.4, 207 mM NaCl, 1.3 mM DTT, 0.7 mM EDTA, 3.3 % glycerol; hnRNPA1 and hnRNPA2: same with 66.7 mM NaCl.

Like-named read-outs stand apart in the source and are kept apart here.

Sequence of Kapβ2 (Homo sapiens) (Q92973 whole entry): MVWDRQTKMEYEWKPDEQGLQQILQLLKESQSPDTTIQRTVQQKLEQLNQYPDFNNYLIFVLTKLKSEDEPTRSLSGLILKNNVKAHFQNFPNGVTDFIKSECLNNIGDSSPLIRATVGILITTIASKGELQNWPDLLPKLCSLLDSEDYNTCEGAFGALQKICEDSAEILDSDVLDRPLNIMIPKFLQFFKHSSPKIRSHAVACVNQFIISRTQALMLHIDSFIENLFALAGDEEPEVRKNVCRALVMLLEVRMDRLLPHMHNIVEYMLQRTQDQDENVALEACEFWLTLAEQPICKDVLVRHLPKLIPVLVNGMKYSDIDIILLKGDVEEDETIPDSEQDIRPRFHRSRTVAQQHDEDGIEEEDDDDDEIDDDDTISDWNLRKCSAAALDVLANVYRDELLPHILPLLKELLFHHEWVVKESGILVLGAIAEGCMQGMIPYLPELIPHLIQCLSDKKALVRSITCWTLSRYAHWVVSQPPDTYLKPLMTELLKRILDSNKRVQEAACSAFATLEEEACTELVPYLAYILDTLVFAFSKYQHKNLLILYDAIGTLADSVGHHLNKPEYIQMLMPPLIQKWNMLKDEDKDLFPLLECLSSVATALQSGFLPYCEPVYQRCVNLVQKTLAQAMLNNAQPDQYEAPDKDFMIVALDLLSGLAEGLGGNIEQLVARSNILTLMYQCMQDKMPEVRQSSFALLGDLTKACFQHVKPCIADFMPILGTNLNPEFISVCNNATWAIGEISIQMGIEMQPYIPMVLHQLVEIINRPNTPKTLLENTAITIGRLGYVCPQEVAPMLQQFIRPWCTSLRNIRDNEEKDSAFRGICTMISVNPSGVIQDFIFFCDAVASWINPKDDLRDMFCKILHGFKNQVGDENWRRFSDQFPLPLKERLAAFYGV

For the molecule FUS (from UniProt P35637), the equilibrium dissociation constant (Kd) (in general, the free concentration of one partner at which half of the binding sites on the other are occupied at equilibrium, for simple one-to-one binding) in the data set with Kapβ2 (Homo sapiens) [1] is 50 nM; with Kapβ2 (Homo sapiens) [2], 43 nM. The molecule “Karyopherin-β2 (from UniProt Q92973 1-898) (natural protein)” returned a saturation concentration (csat) of hnRNPA1 for condensate formation, brightfield microscopy; ~4 μM without Kapβ2, measured with 2 μM Kapβ2 with hnRNPA1 of 6 µM.

B1: FUS^P525L (natural protein, UniProt P35637 1-526, looked up)
chain: MASNDYTQQATQSYGAYPTQPGQGYSQQSSQPYGQQSYSGYSQSTDTSGYGQSSYSSYGQSQNTGYGTQSTPQGYGSTGGYGSSQSSQSSYGQQSSYPGYGQQPAPSSTSGSYGSSSQSSSYGQPQSGSYSQQPSYGGQQQSYGQQQSYNPPQGYGQQNQYNSSSGGGGGGGGGGNYGQDQSSMSSGGGSGGGYGNQDQSGGGGSGGYGQQDRGGRGRGGSGGGGGGGGGGYNRSSGGYEPRGRGGGRGGRGGMGGSDRGGFNKFGGPRDQGSRHDSEQDNSDNNTIFVQGLGENVTIESVADYFKQIGIIKTNKKTGQPMINLYTDRETGKLKGEATVSFDDPPSAKAAIDWFDGKEFSGNPIKVSFATRRADFNRGGGNGRGGRGRGGPMGRGGYGGGGSGGGGRGGFPSGGGGGGGQQRAGDWKCPNPTCENMNFSWRNECNQCKAPKPDGPGGGPGGSHMGGNYGDDRRGGRGGYDRGGYRGRGGDRGGFRGGRGGGDRGGFGPGKMDSRGEHRQDRRERLY
notes: Production of the variant is not described on its own; also called ALS-linked FUS variant P525L; not shown: MBP, N-terminal, cleaved
As for B1, the binding result in data set [3] is on record as “binds”.
